What was measured:
cytosolic β-catenin = experiment: Cytosolic β-catenin level by western blotting in LRP6-transduced HT1080 cells; format: cell-based, human; conditions: 0.5 to 5 nM Mesd, 2 hours at 37° C. (data not shown)
Method: […] After washing in ice-cold PBS, cells were collected and homogenized in a glass Dounce homogenizer in buffer consisting of 100 mM Tris-HCl pH 7.4, 140 mM NaCl, 2 mM DTT, 2 mM PMSF, and 1X Complete™ protease inhibitors (500 μl/well). The homogenate was centrifuged for 10 minutes at 500 g, and the supernatant was further centrifuged at 100,000 g at 4° C. for 90 minutes. The resulting supernatant was designated the cytosolic fraction. The β-catenin levels were then examined by western blotting using β-catenin-specific antibody from Cell Signaling Technology. The immunoreactive proteins were detected using the ECL system. Films showing immunoreactive bands were scanned with a Kodak Digital Science DC120 Zoom Digital Camera and band intensities were analyzed with Kodak Digital Science 1D Image Analysis Software.
β-catenin is a key molecule in the Wnt/β-catenin signaling pathway. A cytosolic pool of β-catenin interacts with DNA-binding proteins and participates in Wnt signal transduction (Hinck, L., J. Cell Biol. 125, 1327-13401994; Gottardi, C. J., J. Cell Biol. 153: 1049-1060, 2001; Klingelhofer, J., Oncogene 22, 1181-1188, 2003). To determine whether Mesd binding to cell surface LRP6 directly regulates Wnt signaling, the effects of Mesd binding on cytosolic P-catenin levels in HT1080-LRP6 cells were studied. […]

LRP5 = LRP5 (Homo sapiens, UniProt O75197); experiment: ^125I-DKK1 binding to LRP5, competition by Mesd or oligopeptide (FIG. 10B)
Method: In order to investigate the binding of Mesd polypeptide and an Mesd oligopeptide to either LRP5 or LRP6, binding assays were performed using ^125I-Mesd or ^125I-DKK1 (FIG. 10).

Wnt signaling = experiment: Wnt signalling TCF/LEF-Luc assay in HEK293 cells (Wnt3A conditioned medium plus Dkk1); format: cell-based; conditions: Wnt3A conditioned medium plus Dkk1 protein at 10 nM
Method: HEK293 cells were plated into six-well plates. For each well, […] of the TOP-[…] luciferase construct (Upstate Biotechnology) was cotransfected with 0.8 μg Mesd-expressing vector, 0.8 μg Mesd mutant-expressing vector, or empty vector. A β-galactosidase-expressing vector (Promega, Madison, Wis.) was included as an internal control for transfection efficiency. After 48 hours, cells were lysed and both luciferase and β-galactosidase activities were determined with enzyme assay kits (Promega). The luciferase activity was determined with a luminometer using the Dual Luciferase Assay system (Promega). Luciferase activity was normalized to the activity of the P-galactosidase.

LRP6 = LRP6 (Homo sapiens, UniProt O75581); experiment: LRP6-mediated ^125I-Mesd degradation in LRP6-transduced HT1080 cells; format: cell-based; design: plasmid pCS-Myc-hLRP6 containing the full-length human LRP6 cDNA; HA; expressed in transfected cells; host or cells: human HT1080 cells, stably transduced (pLNCX2 retroviral vector); conditions: ^125I-Mesd 5 nM, 4 hours at 37° C.
Method: Ligand degradation was performed using the methods as described (Li, Y., J. Biol. Chem. 275: 17187-17194, 2000). Briefly, 2×10^5 cells were seeded into 12-well dishes 1 day prior to assay. Pre-warmed assay buffer (minimal Eagle's medium containing 0.6% BSA with radioligand, 0.6 ml/well) was added to cell monolayers in the absence or the presence of unlabeled 500 nM RAP or 500 nM Mesd, followed by incubation for 4 hours at 37° C. Thereafter, the medium overlying the cell monolayers was removed and proteins were precipitated by addition of BSA to 10 mg/ml and trichloroacetic acid to 20%. Degradation of radioligand was defined as the appearance of radioactive fragments in the overlying medium that were soluble in 20% trichloroacetic acid. Kinetic analysis of endocytosis LRP6-transduced HT1080 cells were plated in 12-well plates at a density of 2×10^5 cells/well and used after overnight culture. Cells were rinsed twice in ice-cold assay buffer (minimal Eagle's medium containing 0.6% BSA), and ^125I-anti-HA IgG was added at 1 nM final concentration in cold assay buffer (0.5 ml/well). The binding of ^125Ianti- HA IgG was carried out at 4° C. for 90 minutes with gentle rocking. Unbound ^125I-anti-HA IgG was removed by washing cell monolayers three times with cold assay buffer. Ice-cold stop/strip solution (0.2 M acetic acid, pH 2.6, 0.1 M NaCl) was added to one set of plates without warming up and kept on ice. The remaining plates were then placed in a 37° C. water bath and 0.5 ml assay buffer prewarmed to 37° C. was quickly added to cell monolayers to initiate internalization. After each time point, the plates were quickly placed on ice and the assay buffer was replaced with cold stop/strip solution. ^125I-anti-HA IgG that remained on the cell surface was stripped by incubation of cell monolayers with cold stop/strip solution for a total of 20 minutes (0.75 ml for 10 minutes, twice) and counted. Cell monolayers were then solubilized with low-SDS lysis buffer and counted. […] The fraction of internalized ^125I-anti-HA IgG after each time point was calculated and plotted. […]

Chain of LRP6 (O75581 20-1613): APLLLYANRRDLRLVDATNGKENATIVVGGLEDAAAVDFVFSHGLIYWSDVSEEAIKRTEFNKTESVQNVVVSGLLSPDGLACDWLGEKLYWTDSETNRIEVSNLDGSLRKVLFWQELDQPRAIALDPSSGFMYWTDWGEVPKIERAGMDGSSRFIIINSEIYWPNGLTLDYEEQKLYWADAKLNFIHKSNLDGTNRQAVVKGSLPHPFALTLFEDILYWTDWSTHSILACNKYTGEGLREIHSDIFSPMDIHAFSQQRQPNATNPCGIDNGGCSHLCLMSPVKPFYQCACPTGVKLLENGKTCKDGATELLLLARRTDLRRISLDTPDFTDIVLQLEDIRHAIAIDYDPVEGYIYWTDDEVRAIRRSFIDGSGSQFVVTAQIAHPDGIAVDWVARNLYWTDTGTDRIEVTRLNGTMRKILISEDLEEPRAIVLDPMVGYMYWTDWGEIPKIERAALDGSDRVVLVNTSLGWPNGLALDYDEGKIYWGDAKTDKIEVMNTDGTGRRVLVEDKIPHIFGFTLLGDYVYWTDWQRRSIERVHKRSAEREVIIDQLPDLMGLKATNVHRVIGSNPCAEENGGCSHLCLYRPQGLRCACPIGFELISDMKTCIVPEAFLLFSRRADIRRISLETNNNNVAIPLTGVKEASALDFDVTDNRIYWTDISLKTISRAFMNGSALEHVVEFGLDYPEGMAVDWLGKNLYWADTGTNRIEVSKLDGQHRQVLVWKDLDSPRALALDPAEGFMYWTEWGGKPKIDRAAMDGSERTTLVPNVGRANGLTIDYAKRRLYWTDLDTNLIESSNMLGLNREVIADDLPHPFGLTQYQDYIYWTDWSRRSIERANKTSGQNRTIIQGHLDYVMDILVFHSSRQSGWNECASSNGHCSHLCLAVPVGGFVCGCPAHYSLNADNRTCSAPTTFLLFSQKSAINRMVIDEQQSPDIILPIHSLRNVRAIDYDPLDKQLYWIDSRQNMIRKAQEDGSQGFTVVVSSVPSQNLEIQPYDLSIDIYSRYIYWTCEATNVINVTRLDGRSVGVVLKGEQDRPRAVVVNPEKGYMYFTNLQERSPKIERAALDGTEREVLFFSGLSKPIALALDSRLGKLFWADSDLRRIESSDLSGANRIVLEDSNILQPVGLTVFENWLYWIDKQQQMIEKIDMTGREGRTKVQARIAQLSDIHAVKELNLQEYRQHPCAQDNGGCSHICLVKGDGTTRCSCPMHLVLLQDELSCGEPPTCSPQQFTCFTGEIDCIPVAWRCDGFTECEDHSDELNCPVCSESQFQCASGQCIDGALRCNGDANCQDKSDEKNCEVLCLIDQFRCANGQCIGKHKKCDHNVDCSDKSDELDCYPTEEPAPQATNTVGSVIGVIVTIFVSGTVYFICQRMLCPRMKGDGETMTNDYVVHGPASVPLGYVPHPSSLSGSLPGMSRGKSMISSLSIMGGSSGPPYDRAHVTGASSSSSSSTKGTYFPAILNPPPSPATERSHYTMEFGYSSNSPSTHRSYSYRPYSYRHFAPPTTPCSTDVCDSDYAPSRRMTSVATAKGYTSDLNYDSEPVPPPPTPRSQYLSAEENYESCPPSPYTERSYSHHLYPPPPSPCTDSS
Chain of LRP5 (O75197 32-1615): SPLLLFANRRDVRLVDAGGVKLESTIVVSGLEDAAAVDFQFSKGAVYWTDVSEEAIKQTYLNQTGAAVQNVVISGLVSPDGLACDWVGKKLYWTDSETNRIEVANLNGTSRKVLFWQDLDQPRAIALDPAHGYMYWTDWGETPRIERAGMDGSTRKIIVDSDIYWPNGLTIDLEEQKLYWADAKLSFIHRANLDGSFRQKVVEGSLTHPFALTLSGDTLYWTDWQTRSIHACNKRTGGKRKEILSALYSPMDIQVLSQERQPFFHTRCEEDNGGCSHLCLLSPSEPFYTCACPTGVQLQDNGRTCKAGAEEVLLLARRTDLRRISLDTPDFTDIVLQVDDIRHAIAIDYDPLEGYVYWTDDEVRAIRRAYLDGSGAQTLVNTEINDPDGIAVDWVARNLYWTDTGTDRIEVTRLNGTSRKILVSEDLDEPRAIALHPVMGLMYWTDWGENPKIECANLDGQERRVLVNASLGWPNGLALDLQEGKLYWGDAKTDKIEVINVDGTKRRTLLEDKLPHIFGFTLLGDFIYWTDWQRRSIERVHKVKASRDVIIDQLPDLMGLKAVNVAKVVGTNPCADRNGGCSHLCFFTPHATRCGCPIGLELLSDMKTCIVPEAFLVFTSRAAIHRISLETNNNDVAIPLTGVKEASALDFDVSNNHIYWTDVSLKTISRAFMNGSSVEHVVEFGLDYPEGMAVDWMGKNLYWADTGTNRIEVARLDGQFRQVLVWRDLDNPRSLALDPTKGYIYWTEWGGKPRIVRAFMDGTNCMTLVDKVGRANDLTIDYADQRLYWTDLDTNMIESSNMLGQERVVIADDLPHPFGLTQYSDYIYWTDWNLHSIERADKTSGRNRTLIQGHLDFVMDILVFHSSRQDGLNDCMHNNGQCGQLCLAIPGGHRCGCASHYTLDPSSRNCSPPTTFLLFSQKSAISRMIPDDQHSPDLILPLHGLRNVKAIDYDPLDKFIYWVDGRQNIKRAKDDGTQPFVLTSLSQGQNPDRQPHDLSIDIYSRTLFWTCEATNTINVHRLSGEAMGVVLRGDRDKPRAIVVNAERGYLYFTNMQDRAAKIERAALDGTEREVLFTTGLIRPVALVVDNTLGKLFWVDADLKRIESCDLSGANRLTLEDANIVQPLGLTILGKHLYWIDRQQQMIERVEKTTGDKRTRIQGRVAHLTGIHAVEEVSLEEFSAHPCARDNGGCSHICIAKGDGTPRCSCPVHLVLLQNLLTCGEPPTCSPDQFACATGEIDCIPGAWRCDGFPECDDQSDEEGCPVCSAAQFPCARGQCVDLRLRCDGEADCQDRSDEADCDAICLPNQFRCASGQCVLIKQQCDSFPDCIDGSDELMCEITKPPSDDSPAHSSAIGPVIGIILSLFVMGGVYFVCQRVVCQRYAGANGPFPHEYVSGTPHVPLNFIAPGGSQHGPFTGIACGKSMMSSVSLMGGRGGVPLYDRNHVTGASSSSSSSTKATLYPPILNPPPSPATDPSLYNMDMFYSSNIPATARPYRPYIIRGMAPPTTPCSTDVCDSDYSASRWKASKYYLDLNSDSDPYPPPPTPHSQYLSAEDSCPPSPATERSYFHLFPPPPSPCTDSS

B1: Mesd: recombinant wild-type mouse Mesd, polyhistidine tail at the N-terminus, lacks the signal peptide, expressed in E. coli (protein)
chain: ADTPGEATPPPRKKKDIRDYNDADMARLLEQWEKDDDIEEGDLPEHKRPSAPIDFSKLDPGKPESILKMTKKGKTLMMFVTVSGNPTEKETEEITSLWQGSLFNANYDVQRFIVGSDRAIFMLRDGSYAWEIKDFLVSQDRCAEVTLEGQMYPGKGGGSKEKNKTKPEKAKKKEGDRKPRASKEDNRAGSRREDL
modifications: left off: small tags and cut ends
notes: recombinant wild-type mouse Mesd, polyhistidine tail at the N-terminus, lacks the signal peptide, expressed in E. coli
Change in cytosolic β-catenin levels (cytosolic β-catenin): no significant change
Reduction in binding of ^125I-DKK1 to LRP5 (LRP5): small but significant reduction
Restoring of Wnt signaling inhibited by Dkk1 (luciferase activity) (Wnt signaling): at least partially restoring Wnt signaling
Inhibition of ^125I-Mesd degradation (LRP6; 500 nM unlabeled competitor): completely
^125I-Mesd degradation level (LRP6; HT1080 cells transduced with LRP6): 320 fmoles/mg cell protein

From US20080227698A1, “OLIGOPEPTIDES FOR TREATMENT OF OSTEOPOROSIS AND OTHER BONE DISEASES AND METHODS THEREOF” (Washington University, priority 2005, published 2008)
